Laboratory results taken from publication PMC3484135, “A Divalent Ion Is Crucial in the Structure and Dominant-Negative Function of ID Proteins, a Class of Helix-Loop-Helix Transcription Regulators” (PLoS ONE, 2012).

Biological target: the molecule itself
Test: crystal structure; hanging drop vapor diffusion; protein 7 mg/ml in 50 mM Tris pH 8.0, 100 mM NaCl; precipitant 0.1 M MES pH 6.5, 2.0 M potassium acetate; 2.1Å native dataset, phased from a Se-Met SAD dataset

B1: ID2 HLH (residues 24–82) with a C-terminal 14 amino acid stabilising polypeptide (domain or fragment, human)
chain: RSKTPVDDPMSLLYNMNDCYSKLKELVPSIPQNKKVSKMEILQHVIDYILDLQIALDSHLKPSFLVQSGDIAS
notes: ID2, human, HLH domain, residues 24–82, cloned from full-length cDNA (Genecopoeia Z0585); C-terminal 14 amino acid polypeptide added to increase stability; Expressed from pDest-565 with a TEV site at the N terminus of ID2 HLH; The native crystal is called ID2-Nterm-HLH in the methods, and a Se-Met form (ID2-HLH-Se-Met) was used for phasing; also called wild type ID2; ID2 WT; source: E. coli …
- stoichiometry N: 2
